Measured values from publication PMC8440770.

Molecular target: spMSP1D1 (MSP1D1 with SpyCatcher at the N-terminus and SpyTag at the C-terminus, circularized)
Assay: cross-linking + other: fluorescence fluctuation spectroscopy; spMSPs in PC lipid nanodiscs (cNDs); cross-linking: cNDs 0.5 µM in PBS with EGS, room temperature 1 h, SDS-PAGE; fluctuation spectroscopy: molecular brightness of FITC-labeled spMSPs and cNDs (100 pM) in reconstitution buffer by photon counting histogram

How did the stoichiometry N turn out when “spMSP1D1 (MSP1D1 with SpyCatcher at the N-terminus and SpyTag at the C-terminus, circularized)” was run?
The stoichiometry N was 2.
